Measured values from patent US20090285807A1 (METHERESIS TRANSLATIONAL RESEARCH, published 2009).

Columns and labels:
[1] = target: T1, Hepatocyte Growth Factor Receptor (HGFR, Met receptor), full length, endogenous in human tumor cells (GTL-16) (human, UniProt P08581 25-1390); test: immunoprecipitation of Met receptor from cell lysates, Western blot with anti-Met C-terminal antibody (FIG. 11A)
T1 construct: whole, on cells; The mature receptor is a disulfide-linked alpha/beta heterodimer cleaved from one precursor; also called HGF receptor
T1 sequence (P08581 25-1390): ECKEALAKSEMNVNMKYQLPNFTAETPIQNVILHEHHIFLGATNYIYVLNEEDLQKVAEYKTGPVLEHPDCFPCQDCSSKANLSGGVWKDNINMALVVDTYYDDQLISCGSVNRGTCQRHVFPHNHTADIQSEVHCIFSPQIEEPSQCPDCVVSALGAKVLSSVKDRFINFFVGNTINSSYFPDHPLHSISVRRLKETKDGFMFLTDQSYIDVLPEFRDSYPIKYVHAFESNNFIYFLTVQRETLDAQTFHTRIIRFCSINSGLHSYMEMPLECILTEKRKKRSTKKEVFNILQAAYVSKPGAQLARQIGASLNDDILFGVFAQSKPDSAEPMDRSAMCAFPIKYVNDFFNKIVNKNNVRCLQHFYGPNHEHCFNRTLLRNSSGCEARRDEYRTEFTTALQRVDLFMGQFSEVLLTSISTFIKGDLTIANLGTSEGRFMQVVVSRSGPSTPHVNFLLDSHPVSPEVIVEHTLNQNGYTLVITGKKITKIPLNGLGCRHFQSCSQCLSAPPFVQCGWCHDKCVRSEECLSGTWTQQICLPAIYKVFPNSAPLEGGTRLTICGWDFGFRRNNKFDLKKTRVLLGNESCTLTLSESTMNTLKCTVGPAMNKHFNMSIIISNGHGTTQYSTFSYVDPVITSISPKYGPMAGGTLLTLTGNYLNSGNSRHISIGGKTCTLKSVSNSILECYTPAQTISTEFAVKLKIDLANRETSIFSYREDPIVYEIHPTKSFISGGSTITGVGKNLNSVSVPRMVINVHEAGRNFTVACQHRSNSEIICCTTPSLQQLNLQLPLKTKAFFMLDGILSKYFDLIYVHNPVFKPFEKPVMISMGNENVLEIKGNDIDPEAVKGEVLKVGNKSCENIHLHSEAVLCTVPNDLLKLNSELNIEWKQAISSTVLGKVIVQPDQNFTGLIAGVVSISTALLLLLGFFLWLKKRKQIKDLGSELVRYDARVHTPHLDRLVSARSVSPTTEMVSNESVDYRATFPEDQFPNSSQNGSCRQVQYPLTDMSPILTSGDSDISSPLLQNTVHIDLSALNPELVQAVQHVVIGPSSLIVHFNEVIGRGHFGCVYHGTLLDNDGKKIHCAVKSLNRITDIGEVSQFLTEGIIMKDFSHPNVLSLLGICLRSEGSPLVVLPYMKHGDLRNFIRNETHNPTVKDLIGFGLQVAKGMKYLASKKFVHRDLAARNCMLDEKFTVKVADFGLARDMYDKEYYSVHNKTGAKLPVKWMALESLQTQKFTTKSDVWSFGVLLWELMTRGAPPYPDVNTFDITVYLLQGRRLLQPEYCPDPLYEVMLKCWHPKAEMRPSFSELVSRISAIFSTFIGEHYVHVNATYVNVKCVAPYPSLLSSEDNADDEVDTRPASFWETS
Description: FIG. 11: The recombinant AntiMET-R binds with high affinity the extracellular domain of Met. (A) Western blot analysis of cell lysates containing the Met Receptor immunoprecipitated with the AntiMET-R derived from different sources (hybridoma or genetically modified carcinoma cell line). The immunoprecipitation was performed incubating Seph. Prot. G with cell culture supernatants from 1: Hybridoma producing unrelated MAb; 2 Hybridoma producing AntiMET-R MAb; 3: MDA-MB 435 cells infected with lentiviral vector carrying cDNAs for AntiMET-R MAb 4: MDA-MB 435 cells not infected. Samples were subjected to SDS-PAGE under reducing condition and the corresponding filters were probed with an anti-Met antibody directed against the c-Terminal tail of the receptor. (B) Binding assay of the AntiMET-R and the recombinant AntiMET-R to the extracellular domain of the Met Receptor. 96 wells plate coated with purified MET extracellular domain fused to the Fc domain derived from Human Ig (100 ng/well) was incubated with increasing concentrations of purified AntiMET-R or recombinant AntiMET-R (from 0 to 5.5 nM). […] To control the specificity of binding we performed the same assay using wells coated with Fc-Ron (a chimera protein generated fusing the Fc domain of Human Ig to the extracellular domain of the Ron receptor, a protein belonging to the Met receptor family).

[2] = target: T2, SEMA PSI (aminoacids 1-562), truncated form of Decoy Met containing the SEMA domain and the PSI region, myc- … (human, UniProt P08581 25-562); test: immunoprecipitation from conditioned medium, Western blot with anti-myc
T2 construct: range 25-562; also called myc-tagged SEMA PSI
T2 sequence (P08581 25-562 limits assumed): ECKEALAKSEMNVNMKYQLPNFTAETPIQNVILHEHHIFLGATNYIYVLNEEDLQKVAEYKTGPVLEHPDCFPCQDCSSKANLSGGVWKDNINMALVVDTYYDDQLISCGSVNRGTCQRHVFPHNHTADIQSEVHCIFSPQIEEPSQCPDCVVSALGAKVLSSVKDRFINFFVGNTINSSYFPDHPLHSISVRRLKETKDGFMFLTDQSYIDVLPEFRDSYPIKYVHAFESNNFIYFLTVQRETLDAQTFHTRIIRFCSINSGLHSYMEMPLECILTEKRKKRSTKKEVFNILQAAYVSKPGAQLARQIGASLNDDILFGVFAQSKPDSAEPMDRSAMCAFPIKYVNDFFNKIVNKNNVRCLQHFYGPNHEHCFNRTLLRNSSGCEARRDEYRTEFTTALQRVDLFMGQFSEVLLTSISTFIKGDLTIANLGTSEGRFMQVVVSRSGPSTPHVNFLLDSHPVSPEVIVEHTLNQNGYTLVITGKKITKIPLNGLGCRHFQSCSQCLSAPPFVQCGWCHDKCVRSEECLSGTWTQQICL
Source text: (§1) FIG. 18: AntiMET-R specifically recognizes an epitope located in the IPTs region. Conditioned media of MDA-MB-435 cells transduced with lentiviral vector particles encoding for myc-tagged Decoy Met, myc-tagged SEMA PSI and myc-tagged PSI IPT1-4 were immunoprecipitated with the antiMET-R antibody and detected by Western blot using a biotinylated anti-myc antibody (right panel). Equal amounts of conditioned media were loaded as a control for protein expression (left panel). CTRL: conditioned medium of MDA-MB-435 cells transduced with an empty lentiviral vector. Decoy Met: conditioned medium of MDA-MB-435 cells transduced with a lentiviral vector expressing the entire HGFR extracellular domain. PSI-IPT: conditioned medium of MDA-MB-435 cells transduced with a lentiviral vector expressing PSI, IPT-1, IPT-2, IPT-3, IPT-4 domains of the HGFR. SEMA-PSI: conditioned medium of MDA-MB-435 cells transduced with a lentiviral vector expressing Sema and PSI domains of the HGFR. On the right molecular weight in KD are shown.
(§2) Conditioned media of MDA-MB-435 cells transduced with myc-tagged Decoy Met, SEMA PSI and PSI IPT were immunoprecipitated with the AntiMET-R antibody and detected by Western blot using a biotinylated anti-myc antibody (FIG. 18, right panel). […]

[3] = target: T3, Decoy Met (aminoacids 1-932), soluble recombinant entire extracellular region of human Met, myc- and … (human, UniProt P08581 25-932); test: as above
T3 construct: range 25-932; Numbering follows GenBank X54559; also called myc-tagged Decoy Met; Met ectodomain
T3 sequence (P08581 25-932 limits assumed): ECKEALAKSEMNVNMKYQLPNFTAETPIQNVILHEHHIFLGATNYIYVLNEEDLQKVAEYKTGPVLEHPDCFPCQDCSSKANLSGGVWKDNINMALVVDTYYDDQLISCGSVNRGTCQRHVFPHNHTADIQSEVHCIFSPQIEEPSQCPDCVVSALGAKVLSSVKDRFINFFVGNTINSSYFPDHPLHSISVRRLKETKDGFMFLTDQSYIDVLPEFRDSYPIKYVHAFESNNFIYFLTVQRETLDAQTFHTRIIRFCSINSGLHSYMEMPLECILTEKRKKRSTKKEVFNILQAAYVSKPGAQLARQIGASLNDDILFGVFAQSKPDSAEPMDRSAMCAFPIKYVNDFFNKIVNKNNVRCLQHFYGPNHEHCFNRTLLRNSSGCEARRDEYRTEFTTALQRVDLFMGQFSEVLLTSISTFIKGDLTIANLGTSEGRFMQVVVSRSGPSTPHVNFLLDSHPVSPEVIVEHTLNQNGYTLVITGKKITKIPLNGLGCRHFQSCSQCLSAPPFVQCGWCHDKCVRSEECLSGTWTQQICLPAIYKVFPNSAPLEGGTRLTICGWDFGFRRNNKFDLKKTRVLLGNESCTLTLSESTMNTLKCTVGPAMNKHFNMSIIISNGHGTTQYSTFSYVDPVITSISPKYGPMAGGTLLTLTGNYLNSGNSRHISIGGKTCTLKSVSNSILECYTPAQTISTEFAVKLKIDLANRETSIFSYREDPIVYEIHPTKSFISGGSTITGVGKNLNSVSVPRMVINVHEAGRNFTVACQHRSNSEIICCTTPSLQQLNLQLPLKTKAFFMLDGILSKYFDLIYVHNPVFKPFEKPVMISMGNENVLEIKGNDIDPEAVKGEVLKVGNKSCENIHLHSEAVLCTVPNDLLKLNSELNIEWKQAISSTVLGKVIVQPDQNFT
Source text: as §1, §2

[4] = target: T1, Hepatocyte Growth Factor Receptor …; test: flow cytometry on GTL-16 cells (50 ug/ml antibody) and immunofluorescence on fixed GTL-16 cells (2.5 ug/ml)
Description: For Flow cytometry analysis, 10⁵ GTL-16 cells were detached with PBS-EDTA 0.025%, washed with PBS and incubated with 50 μg/ml of antiMet-R antibody or the same amount of isotype control mouse Ig for 15′ RT. After 2 washes with PBS, the cells were incubated with 15 μg/ml of FITC conjugated Goat anti-mouse Ig (Jackson Immunoresearch laboratories) for 15′ RT. Cells were than washed, re-suspended in PBS-5% BSA and analysed by flow cytometry (Becton Dickinson, Mountain View, Calif.). GTL-16 cells were fixed in methanol:aceton (3:1) for 5′ on ice then blocked with 2% goat serum in PBS for 30′ at RT. […] Analysis of the samples was performed with a fluorescence microscope (DM-IRB, Leica Microsystems).
GTL-16 cells, a human gastric carcinoma cell line, were incubated with the AntiMET-R antibody. […] Infact the mean of fluorescence intensity in cells labelled with the antiMet-R antibody was increased respect to ctrl cells (FIG. 20, panel A). GTL-16 cells were also incubated, after fixation, with the antiMet-R antibody to perform an immunofluoresce analysis.

B1: recombinant AntiMET-R produced by carcinoma cell lines transduced with the bi-directional lentiviral vector carrying AntiMET-R cDNAs (antibody, mouse IgG2a, kappa, V domains shown)
VH: QVQLQQPGTELVKPGASVKLSCKASGYTFTSYWIHWVKQRPGQGLEWIGEINPSSGRTNYNEKFKNKVTVTVDKSSTTAYMQLSNLTSEDSAVYYCASRGYWGQGTTLTVSS
VL: DIVLTQSPASLAVSLGQRATISCKASQSVDYDGGSYMSWFQQRPGQPPKLLISAASNLESGIPARFSGSGSGTDFTLNIHPVEEEDVATYYCQQSYEDPLTFGAGTKLELKR
B1: binds [1].

B2: AntiMET-R, anti-Met monoclonal antibody produced by the hybridoma cell line ICLC PD 05006 (antibody, mouse IgG2a, kappa, V domains shown)
VH: QVQLQQPGTELVKPGASVKLSCKASGYTFTSYWIHWVKQRPGQGLEWIGEINPSSGRTNYNEKFKNKVTVTVDKSSTTAYMQLSNLTSEDSAVYYCASRGYWGQGTTLTVSS
VL: DIVLTQSPASLAVSLGQRATISCKASQSVDYDGGSYMSWFQQRPGQPPKLLISAASNLESGIPARFSGSGSGTDFTLNIHPVEEEDVATYYCQQSYEDPLTFGAGTKLELKR
notes: Mouse monoclonal antibody from a hybridoma; They may include leader peptides; also called purified AntiMET-R
B2: no binding [2]; binds [3]; binds [4].
